# Test results: the supplement of paper PMC7877785
# ± gives the uncertainty stated by the source.
# Experiment: self-splicing fitness, log relative to wild type (ln ratio); higher = more splicing; Tetrahymena group I intron in knt gene, E. coli kanamycin selection, DiMSum; sequences stand for … in CUCUCU…GGAGGGAAAAGUUAUCAGGCAUGCACCUGGUAGCUAGUCUUUAAACCAAUAGAUUGCAUCGGUUUAAAAGGCAAGACCGUCAAAUUGCGGGAAAGGGGUCAACAGCCGUUCAGUACCAAGUCUCAGGGGAAACUUUGAGAUGGCCUUGCAAAGGGUAUGGUAAUAAGCUGACGGACAUGGUCCUAACCACGCAGCCAAGUCCUAAGUCAACAGAUCUUCUGUUGAUAUGGAUGCAGUUCACAGACUAAAUGUCGGUCGGGGAAGAUGUAUUCUUCUCAUAAGAUAUAGUCGGACCUCUCCUUAAUGGGAGCUAGCGGAUGAAGUGAUGCAACACUGGAGCCGCUGGGAACUAAUUUGUAUGCGAAAGUAUAUUGAUUAGUUUUGGAGUACUCGUGGUCG
# Method in brief: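 Colonies from six replicate transformations of E. coli BL21(DE3) were pooled and amplicon-sequenced on an Illumina HiSeq 2500. The library placed an intron with all eight P1ex-region nucleotides randomised inside the knt kanamycin-resistance gene on pET-22b(+), and cells grew overnight at 37°C or 30°C on LB agar with or without 25 μg/mL kanamycin (plus 100 μg/mL carbenicillin, 50 μM IPTG, 0.2% rhamnose). Fitness is the DiMSum error-weighted combination of wild-type-normalised replicate fold changes, kanamycin versus none.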
Sequence,self-splicing fitness (ln) (30 °C),self-splicing fitness (ln) (37 °C)
GGAUAGCAAUAUUACGUAGG,-2.82 ± 0.19,-1.52 ± 0.18
CAUUAGCAAUAUUACGACAG,0.268 ± 0.06,0.168 ± 0.071
AGUAAGCAAUAUUACGAGUU,-2.53 ± 0.097,-0.877 ± 0.1
CGACAGCAAUAUUACGCUAC,,-1.12 ± 0.28
GGGUAGCAAUAUUACGAACA,,-0.706 ± 0.39
UCAAAGCAAUAUUACGUUUU,-3.28 ± 0.16,-3.18 ± 0.3
UACGAGCAAUAUUACGCCUC,,-2.06 ± 0.34
UAGUAGCAAUAUUACGGAGA,-3.56 ± 0.47,-3.35 ± 0.35
CAGUAGCAAUAUUACGCUAC,-4.2 ± 0.3,-2.7 ± 0.23
CAGAAGCAAUAUUACGGAGA,,-2.16 ± 0.24
UGCGAGCAAUAUUACGGUUA,-0.797 ± 0.11,-0.443 ± 0.12
GUUGAGCAAUAUUACGAGAU,-2.7 ± 0.19,-2.81 ± 0.31
AUUGAGCAAUAUUACGCGCU,-2.3 ± 0.29,-1.29 ± 0.41
CCAGAGCAAUAUUACGAAAU,-3.47 ± 0.23,-2.93 ± 0.25
CCAAAGCAAUAUUACGGUCU,-3.75 ± 0.16,-3.15 ± 0.19
AUUGAGCAAUAUUACGGCAU,-1.17 ± 0.088,-0.323 ± 0.13
GCACAGCAAUAUUACGCAUC,-1.07 ± 0.083,-0.51 ± 0.096
UUCCAGCAAUAUUACGACAC,-3.32 ± 0.19,-2.18 ± 0.19
CGAUAGCAAUAUUACGUGAU,-3.02 ± 0.1,-0.808 ± 0.088
GAAAAGCAAUAUUACGUGCC,-1.69 ± 0.19,-0.25 ± 0.22

Sequence,self-splicing fitness (ln) (30 °C),self-splicing fitness (ln) (37 °C)
GCAUAGCAAUAUUACGCGCU,,-2.39 ± 0.31
CCCUAGCAAUAUUACGUAUC,,-3.37 ± 0.39
AACAAGCAAUAUUACGCCAG,-2.62 ± 0.15,-1.24 ± 0.15
CUCAAGCAAUAUUACGAAGA,-3.8 ± 0.25,-2.55 ± 0.2
AGAGAGCAAUAUUACGGCCU,-0.408 ± 0.3,-2.58 ± 0.5
AAACAGCAAUAUUACGGGGG,-3.28 ± 0.22,-2.52 ± 0.19
GCUGAGCAAUAUUACGAUCG,,-0.335 ± 0.25
UUCCAGCAAUAUUACGUGGG,-3.68 ± 0.18,-2.56 ± 0.16
AGAAAGCAAUAUUACGUCUU,-1.77 ± 0.09,-0.678 ± 0.088
GAAAAGCAAUAUUACGAUCA,-0.39 ± 0.067,-0.234 ± 0.072
UUAGAGCAAUAUUACGUGAG,-1.88 ± 0.083,-0.875 ± 0.13
UUCUAGCAAUAUUACGGCGG,-2.93 ± 0.16,-1.28 ± 0.13
AGGGAGCAAUAUUACGGGUU,-3.84 ± 0.25,-3.17 ± 0.35
AUCUAGCAAUAUUACGCAGA,-3.1 ± 0.49,-1.82 ± 0.23
GCAAAGCAAUAUUACGCUUG,-3.98 ± 0.18,-2.64 ± 0.18
GAGUAGCAAUAUUACGCUAA,-1.92 ± 0.15,-1.97 ± 0.2
GAACAGCAAUAUUACGGGUU,-2.91 ± 0.1,-2.04 ± 0.11
GAAGAGCAAUAUUACGAGUG,-4.54 ± 0.41,-2.81 ± 0.24
GAAAAGCAAUAUUACGAGGG,,-1.77 ± 0.25
UCAUAGCAAUAUUACGGGAU,-3.11 ± 0.18,-2.87 ± 0.28
